Results as given in paper PMC3492137.

Key:
[1] = target: human immunoglobulin G, biotinylated; test: microtiter plate dissociation assay (immobilised mutant, hIgG-biotin detected with streptavidin-alkaline phosphatase, A405); settings: 2 µg/ml mutant conjugated, 6 µM hIgG-biotin, read off a plot, scale: normalized absorbance at 405 nm
[2] = target: Fc portion of human immunoglobulin G, biotinylated; test: yeast surface display end-point dissociation assay, flow cytometry (strep-PE); settings: dissociation at pH 4.5 for 30 min; parent: est. 0.88; read off a plot; scale: normalized fluorescence
[3] = dissociation at pH 2.5 for 30 min, parent: est. 0.33
[4] = dissociation at pH 3.5 for 30 min, parent: est. 0.91
[5] = dissociation at pH 4.5 for 30 min, parent: est. 1.0

Row | response [1, 3] | response [1, 4] | response [1, 5] | response [2] | Substance
1 | 0.33 | 0.79 | 1 | – | Sso7d-hFc with a C-terminal cysteine Y40H
2 | – | – | – | 0.1 | Sso7d-hFc, yeast cell surface fusion Y40H
3 | – | – | – | 0.06 | Sso7d-hFc, yeast cell surface fusion Sso7d-ev-hFc
4 | 0.35 | 0.87 | 1 | – | Sso7d-hFc with a C-terminal cysteine Sso7d-ev-hFc
